# Laboratory results reported in the DeepSol protein solubility set.
# Experiment: soluble on expression in E. coli; label from the status in PepcDB or PDB records
row,Sequence,soluble on expression in E. coli
1,MAGQADNRAPYAKIAAHYTELITSGQLQPGSLLPSIKNLAEEWNVSTATAEKALRKLRNEGLVRGIHGIGTEVLDQPAPMSSGAQRQDRGRRTGSSWGAGERSDSHKAAVVPAPAEVAHALDIEPGSDVIRRSRVYRDRHGIVAHSTSWIPARFGRLIPQLAASERLTGGTSLQLIAQVTGHPITHRVDSASARLLTPEYTRLLELDPENPPAEPVVVMTAKFVDSEGTVVEYGVDLGGPGRTWRTESEVTQ,soluble
2,MAGRAAVPEVIWSRPERTGRGPRPAYTRADIAAAAVRIADADGLDAVSMRRVAGELGCGTMSLYNYVPRKEDLYELMMDAVSGEHELWEPSGDWRADMIRVAHQTRALMHRHTWLPRLMSPVYGFSPNALRYLEHCLACLDPFEAPYGTKMELVAMVNGVVTTYVANEIATVERTRSLPWSEEQENAARIAYLGRQVASGAYPRLAASFAEDAGPIDLEGVFERALARVLDGFA,not soluble
3,MAGSSEEAPDYGRGVVIMDDWPGYDLNLFTYPQHYYGDLEYVLIPHGIIVDRIERLAKDIMKDIGYSDIMVLCVLKGGYKFCADLVEHLKNISRNSDRFVSMKVDFIRLKSYRNDQSMGEMQIIGGDDLSTLAGKNVLIVEDVVGTGRTMKALLSNIEKYKPNMIKVASLLVKRTSRSDGFRPDYAGFEIPNLFVVGYALDYNEYFRDLNHICVINEHGKEKYRV,soluble
4,MAGVTKEQIAKAKEWDLLSYLQAYEPQELKKSGPREYCTRTHDSLKISNGKWCWNSRGIGGRTALDYLIKVRGMDFVGAVETLCGYCAPPPEKAPPIKEKQPKPFRLPQASRCASAVVGYLQDRGIDPELLGVCMEAGILYESCKYQNCVFVGRDTAGNARAASLRGTRDGFRMDVEGSDKRYSFCLPAGKADCPRLAVAESPIDALSLATLVKLSGGEPRDSHYLSLGGTGPRALIQFLHDHPHVTQVSLCLDNDKAGLEGMERLTQEIQNDAELSRRVKLVYPNPPKQGKDYNEFLCTHVKAVRTAQRQRDAAR,not soluble
5,MAHDVEVKNAVRGAYVFDRLSLEMAAEKAGVSFGTARRWKANAESNGDNWDKARDVHVMASGGIENIAQGLLTGFLIKYRKLMSELEENTEMATAAKVEALSALADSFAKMTASSKKLLPETSAMATAMRAIEMMANIVKSKKPHLLPDFLEMLDDLEVQFKKEFK,not soluble
6,MAHHHHHHGPNTNPVAAWKALKEGNERFVAGRPQHPSQSVDHRAGLAAGQKPTAVIFGCADSRVAAEIIFDQGLGDMFVVRTAGHVIDSAVLGSIEYAVTVLNVPLIVVLGHDSCGAVNAALAAINDGTLPGGYVRDVVERVAPSVLLGRRDGLSRVDEFEQRHVHETVAILMARSSAISERIAGGSLAIVGVTYQLDDGRAVLRDHIGNIGEEV,soluble
7,MAHHHHHHMALKLCKRFLRSNTKKPIFSKARDNLKERFDDDNYSFLEDNSFDSPLKASDEFPSYMQPSDKNSSWSEEWRDENLKLREKENRYNLRVSDNYAYSVPYNYKIVIPHKGKNIKDEKDKRKKLLNDEKYIKEEYSRDVSNTLNYSDFCGFRNPTLSTFENYRYWQDSGFKKFMNRIFPIKIPEHRKIDPLLREYIYFLHSFDPYRFTFKRLSERYLFPENVIRSIYKEESVKRFLEDYHLCDDKTKRISKKEAVLKIKELIYSKKIGYKDIGDYENIKNEQDEFCGHKNTFDQINRQIIQVESISAFPLADRRNPVPKRVDIDMTVCNTSNIKIMNWINPNDKVIF,soluble
8,MAHHHHHHMALSSSGSAALGDRIARAAAAAPQWTAQQRCFRQLLKSLRGAYFHDRSKLFWARHRILVEFYKYSRVEEERDVLLLVGIGNEIATFVAEYMKVDVGAIMEHNKKIQSLPVAKAKRYREEYLLHEKQHESWCKQKIRLMMDRRPPPPYPFS,not soluble
9,MAHHHHHHMALTTDYSKLGELIHQSPESPSLYNQAKYHTQKQNDSFYEIKRFMCLGSTIPDDAQYSVDLLIDRGDKKCRDVLAESFRVEGYKYATTNNDDNVRFAKLFFDHYANMFYCMHLHGDDRKCNSLFRHFYEAVGKQTR,not soluble
10,MAHHHHHHMANSKFSYVKLFEEERKILLNCYFIVRIDGCDFKHFVKAHNYNKPNDIKGLNLMNECALDILKKFDDIDLCYGHSDEYSFLFNKSTKLWNRRYDKILTNVVSYFTSCFLYKWKNYFQKEMLYAPSFDARIVVYPNEKEIKDYFSWRQVDCHINTQYNECFWNLIRQANYTNDEAHKFLLTTQTKDKNELLFSRFNINYNNLPEIFRRGTIIIRNKTFQKKNEALGTIYNNDTANNIDDNNNNNNNNNNTFNDNNDIENFEKLKKECLPKFIISHENLVSEKFWDKYDYIFKKKKDLEKK,not soluble
11,MAHHHHHHMAQEISNLVKKYNVTWQQTMLRIYDPKETVEFYEKNFGMINIHTYHFNEYNFSLYFLITPPYDEEERKKLPEPNTKESEKYLWNLNTVCLELTYNHNSQEKLSNGNNENDRGFGHIAFNCNDVIEQCDNLFKKNVKFHKLPHETKMKTIGFALDPNNYWIEIVKRSNQVKWKNYKNITNFSQTMIRVKNPEKSLYFYIHILGMKLIHVKHCSDFSLYFLKSNYACAENNKEMIEDQSNKNTNEIYDFNSLKNSYQTDEDYENFKQSWEPVLELTHNHGTEDDDNFSYHNGNTEPRGFGHIGFLVNDLENYCKELETLNVTFKKKVTEGLMKNIAFIYDPDNYVIELIQRDTSFIAK,soluble
12,MAHHHHHHMARHSSTPLSSSVCVRRKTMSSCRTSSFTHTSSRTLARVQRRFSRETTAPRAVLVTLQDARTNPRNAVRRLDDIHIPSLNQRLSSRLQNSSSQSNRDAIRSPSDANCTAQPNSDNANLATAVLSTKTSATQDAKFLLMPSISVSARAPDTAMADASCNTAPSASS,not soluble
13,MAHHHHHHMASTDEVVLSENRALRVECEAQEVEIAQLKNYLHMSVTKPDLCFGQQRVTLNKCLNSFPEKAWQKLIDETPEVDSPAIITALEDQLADKNKHLTACLQEISNLRSRSGDGKTKPDSITDGNTAHLLSQITFLHNEVERLEQQVNAVRAAGKEELRVMTIEYNDKLQLREKENRLLTEQLRGRKNHLADGEDMAARTKTLESQLATAGIRKKFFTHREKQFPGKNPKIRGCY,not soluble
14,MAHHHHHHMCACTYSYPRAAHGHDGTTSQLFTRKRIFTLPQLHRSYFLKLLFVQKPLSNPLLAVSLHLTFHQHHSLLGPSVACRAHKHMINYYAKCRARNHTEGEGRCLAFRGMY,not soluble
15,MAHHHHHHMCAKLRDSANISSLRKERDCWQREVARVSDAVRVLCGGANICSNVESPTEWAESLCEAVQDGQAALVCLSLELWTGGTWAGIQGFKEQLTAYVGACASAAKEAAERVEALEVEVLRLKESEASLSARCENTEAHARNVEEDLKRASTQAERVSELEQETSDLRTRCNLLRKELQRQREAMQRDRPQPHETANSETAASPITENASAVQSVLLAAAGCVSERDVATFVGSRGSQDGSLKLSKVGAELLIKENAELKRENAHNNGVIAQYIRELEGYKANERVQLSIEYLRNIVQQYLCAAEDLRPKMIPAICTVLEFSSKQKEDVQTANPRCPRFH,soluble
16,MAHHHHHHMDCQALAKSLEQMNHLHNVKYLEAKDLTDFNQKSAYYICHQIAEKQLSKEGGHVVIGLSGGKTPIDVYKNIALVKDIKIDTSKLIFFIIDERYKRDDHKFSNYNNIKFLFESLKINEKEQLYRPDTSKNIVECVRDYNEKIKNMVKKYTKVDIAILGMGSDFHIASLFPNIFFNIYMNNYQNSYIYDESSIKVANSNDTSDNDNLDLLKEYVYFTTTNNFDVRKRITVSLDLLGNASSKIFLLNSTDKLDLWKNMLLKSYVDVNYCLYPAVYLIDSMNTTVVTCGYTNYPQMLEDIYVSNSSLS,soluble
17,MAHHHHHHMDDGTRIPEDVEVFLRAARAKDTFKCAELLKETPSLINSVEAGGFSALHFAAFNGDLEMIRILLEFKPNLELRNYDNNTPLIMAAKGHQNSAIKLLVDAGAEVNLRTPTGGTAAHFAASMGYVDTVRCLVELGADVMHEDSETGTLLHWAAHSGDINCIGEMIYGFKIPINVKDAHGGTALFTALFMKKFEAVEFLLEHGADPRVMIEGDKSTPLHIAVEHANTECVKLLLVFGADPHVANTSGETPTSLAEKAKNNSALRELMKPMLSEEKRKEEAARFKTQGNKVFEGGENVKAAKFYTLAIHLDSTNHVFFSNRAAAYFNQRYYNGAYWDSLRCISLAPDWPKGYFRKAATELAMKKADEALQTCERGLRLDPKNKDLLTIKEEARRQRNK,soluble
18,MAHHHHHHMDIGELPDDQFPGAQYIPDLHGLGRERQALSCKVHEMKIPGQVSPYHVPEGEESSERETLYDENGLPIRTNSNDQEGDKKLWSWTDDGKLKLLCSQPIIPVSVVQGILRRDKIILIPQVEVTDFVVPKIYNQNIKHDVPKLDIKVECSNVEIPNVKYVEKEIIIPIITGYTHKFIPKWDVHEVPRPVVKYIGEQKIVEVEVPEIKYIDKIVEREVVVDTVEKRVPKIIEIPKYVDEVKYVWKPIEKIVYIQKLVPKFDVNLECPPPLIVPYPVQTVKQIPPVMVRKDVKFPDCDYTDFNSPYGSLPIPREYVDYYTSRQKAQKGIFSNCCESNCKNGEDHHGGETYYDVSPSSAMGVSEESLQNELNICNSSNPFVNTSADSILNKGGPRQALDAACM,not soluble
19,MAHHHHHHMDPGAVMPGIVQMSKDNFDQLVGKEKAVLVEFYAPWCGHCKSMAPEYAALGAAYEASTNAKDLLLVGKVDATQDSDLGKRFGVTGFPTILYFAPGSLEPEKYKGGRTAEDFAKYLSSAIAGLRLTIPIEPQFAMELVHTNFDAVVKDPSKAVLVMFYAPWCGHCKALKPIYNTLAKVFSNDKDVVIARINADDAANRKIATEYAVAGFPTVYFFPKGADEKPVEYKNGRNLEDFLTFVNENAGKHRLANGDFSWECGVIAELAEAVALVATSSGESSKAAVEAVKAAAAKLAESEDAAYYIKAAERIAAKGPAYVESESARLKRTLGGSVAGDRRDNMVRRLNILTSIQKHMK,not soluble
20,MAHHHHHHMDTRGLRHLKSYLGKEGEQLARAKRASDVVPVLAARQAAAAAAARATAADVTTVSNTVPAPLSPSVMKYLGGRLASGATHKLSRTQMALAAALAAPGAPSTRGHAEGSENGETALAVTRAKVADMAAAVDTLAVSALELAARRAAEDTEARRSTAESSSLFVLVDTSSEAAEVAGQLEGRYGLTVLLLRDDNACRHPTFPSPASRAGVSTLRGTTSKTPAAERRKTKSNSRTVDEVAPKDEATESTPALAGAVVVVVATPAAFLAVDRRSAIWKFIGSCALLLRRAPTHTGSLLHTLKGIKAAASSSPTKTTPHALNAQRWACIGHVPAIAVLAAEQKWLTEPELDLLTTLRVERHVGSGVGVVSKSTEASVSSAVAALRAPVTVHYAVAQGTHRFQFLFGLLKGLAPHRGIVVHVATRECVAFLYDTLYSLVGELPSHVQLLSDYEGASAYTNMHTTADRQRLCVAFDSTVESGQNGKTAAVLLSCHGLVPRRGSVFLQYDVIPDLLNYNQFIAEVLSPGAVAADAGNDAGGTAPSAAAEVAVRRERMARRRKRSTSPTPAPVAARRVGADAANSAADASSGSKAAIPAAVNYTHILLLFRPNEVAGALRHLRRDGASRYRLEFRELGPRAGGRYFLIGEKLKSMNKKLFPVQNAAYDAYKATMRTYSTIGPRDVYDETKVSLEKVAEEFGYTELPLLDLRLKDTVFRPKEDYYRAARQKQDAERRAYKAFVQGNIVGESPEEHVADSVA,soluble
21,MAHHHHHHMDTRMKDLSFKVVLLGEGRVGKTSLISRYVHNAFDEKEASTVQASMHSSKAVPINDASSAPGAIREVDLALWDTAGQERFHALAPMYYRNADGAIIVYDVTDADTLRKVRTWAKELYAVVGEGKIQLVLCGNKADTPLAEREVSEGEGAAMAAELGASHFFASAKTGQNVAEVFSAMATQVARSREVTGMGGGVAAGGSSGSSGGGAYTGISGRTPSRSRARRGLMVVTEDGEAVTPGRSSPCEGRVYGGITPPRAHRYGSSGTNQPITLSADGSPDAAAAANKSGCC,soluble
